# Source: patent US20250154277A1 (CONCEPT TO MEDICINE BIOTECH, published 2025)
# “And” between values parts separate entries of the source, which are not always exact repeats. Equal values may be shown once. Read-outs that look alike come from different tables or passages of the source.
# T1: human 5T4-His protein (human, UniProt Q13641 32-355)
# T1 construct: also called recombinant 5T4 protein (human 5T4-his tag); human 5T4 protein; not shown: His tag
# T1 sequence (looked up): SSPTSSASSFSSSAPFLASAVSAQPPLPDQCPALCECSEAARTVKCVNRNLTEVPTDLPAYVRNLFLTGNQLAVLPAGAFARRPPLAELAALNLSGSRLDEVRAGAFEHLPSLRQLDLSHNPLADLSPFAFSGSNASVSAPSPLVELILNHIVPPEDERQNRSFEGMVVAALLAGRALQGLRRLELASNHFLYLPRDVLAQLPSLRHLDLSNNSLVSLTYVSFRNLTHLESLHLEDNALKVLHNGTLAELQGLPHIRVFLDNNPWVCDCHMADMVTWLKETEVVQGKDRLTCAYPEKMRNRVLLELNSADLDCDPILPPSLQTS
# T2: cynomolgus 5T4 protein (cynomolgus monkey, UniProt Q4R8Y9 35-355, limits assumed)
# T2 construct: Coated protein in ELISA; the screening step names a cyno 5T4-His protein; also called cyno 5T4; recombinant cyno 5T4-His protein
# T2 sequence (looked up): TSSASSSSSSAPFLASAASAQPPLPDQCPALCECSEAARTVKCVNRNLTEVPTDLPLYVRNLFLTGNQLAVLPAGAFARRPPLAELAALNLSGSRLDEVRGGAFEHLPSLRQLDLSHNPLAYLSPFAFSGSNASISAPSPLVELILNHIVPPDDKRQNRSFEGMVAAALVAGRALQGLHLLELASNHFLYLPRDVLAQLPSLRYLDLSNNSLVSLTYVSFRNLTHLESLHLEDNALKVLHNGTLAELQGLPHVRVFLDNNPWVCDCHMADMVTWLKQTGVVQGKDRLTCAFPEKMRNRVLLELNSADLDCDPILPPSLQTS
# Columns and labels:
# human 5T4-His protein [1] = target: T1, human 5T4-His protein; experiment: ELISA, coated antigen
# cynomolgus 5T4 protein = target: T2, cynomolgus 5T4 protein; experiment: ELISA, coated antigen
# human 5T4-His protein [2] = target: T1, human 5T4-His protein; experiment: ELISA, coated 5T4-His
# Description: To evaluate the binding activity of 159D5 humanized antibodies to human 5T4, the 159D5 chimeric antibody along with 159D5 humanized mAbs were subjected to ELISA test.
# Briefly, microtiter plates were coated with human 5T4-His protein at 1 μg/ml in PBS, 100 μl/well at 4° C. overnight, then blocked with 150 μl/well of 10% BSA. Serial dilutions of antibodies were added to each well and incubated for 1 hour at 37° C. The plates were washed with PBS/Tween and then incubated with Goat Anti-Human IgG-HRP for 30 mins at 37° C. After washing, the plates were developed with TMB substrate and analyzed by spectrophotometer at OD 450 nm. As shown in FIG. 14 and Table 12, most of the humanized antibodies bound to human 5T4 with high activity.
# human 5T4-His protein [3] = target: T1, human 5T4-His protein; experiment: SPR Biacore, Protein A capture
# Method in brief: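 Antibodies captured on a Protein A chip on Biacore T200; serial dilutions of His-tagged human 5T4 injected 2-3 min at 30 μl/min, dissociation 360-1000 s.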
# human 5T4-His protein [4] = target: T1, human 5T4-His protein; experiment: SPR Biacore, Protein A capture, 50 nM 5T4-His
# Description: The binding of the 159D5 humanized antibodies to recombinant 5T4 protein (human 5T4-his tag) was tested with Biacore using a capture method. The mAbs were captured using Protein A chip. 50 nM of human 5T4-his tag protein was injected over captured antibody for 3 mins at a flow rate of 30 μl/min. The antigen was allowed to dissociate for 600 s. All the experiments were carried out on a Biacore T200. Data analysis was carried out using the Biacore T200 evaluation software.
# human 5T4-His protein [5] = target: T1, human 5T4-His protein; experiment: competitive ELISA, coated human 5T4, vs 159D5-biotin
# human 5T4-His protein [6] = target: T1, human 5T4-His protein; experiment: as above; remark: listed apart in the source
# human 5T4-His protein [7] = target: T1, human 5T4-His protein; experiment: as above; remark: listed apart in the source
binder,measurement,setting,value
"159D5 chimeric antibody (antibody, V domains shown, chimeric mAb) VH: DVQLVESGGGLVQPGGSRKLSCTASGFTFSNFGMHWVRQAPETGLEWVAYISSGSSTFYYADSVKGRFTISRDNPKNTLFLQMTSLRSEDTAMYFCARSPAYYRYGLDYWGQGTTLTVSS VL: DIVLTQSPASLAVSLGQRATISCRASQSVSSSTFSYMHWYQQKPGQPPKLLIKSSSNLESGVPARFSGSGSGTDFTLNIHPVEEEDTATYYCQHSWEIPYTFGGGTKLEIK",EC50,human 5T4-His protein [1],0.24 nM and 0.2 nM and 0.39 nM
same,EC50,cynomolgus 5T4 protein,0.18 nM and 0.19 nM and 0.2 nM and 0.11 nM
same,EC50,human 5T4-His protein [2],0.13 nM
same,Kd,human 5T4-His protein [3],0.206 nM
same,koff,human 5T4-His protein [3],0.00024 s⁻¹
same,kon,human 5T4-His protein [3],1.16e+06 M⁻¹ s⁻¹
same,Kd,human 5T4-His protein [4],0.618 nM
same,koff,human 5T4-His protein [4],0.000204 s⁻¹
same,kon,human 5T4-His protein [4],330000 M⁻¹ s⁻¹
same,IC50 (read off the curve),human 5T4-His protein [5],~5 nM
same,IC50 (read off the curve),human 5T4-His protein [6],~5 nM
same,IC50 (read off the curve),human 5T4-His protein [7],~4 nM
